These results are taken from article doi:10.1101/559534v1 (biorxiv, 2019).

Changes are numbered by the printed parent chain. Names and notes keep the numbering of the source.

The target in data set [1] is T1, ATRR (ATR1R2) (Aspergillus nidulans, UniProt A0A1U8QWA2).
T1 sequence (A0A1U8QWA2 1-1270): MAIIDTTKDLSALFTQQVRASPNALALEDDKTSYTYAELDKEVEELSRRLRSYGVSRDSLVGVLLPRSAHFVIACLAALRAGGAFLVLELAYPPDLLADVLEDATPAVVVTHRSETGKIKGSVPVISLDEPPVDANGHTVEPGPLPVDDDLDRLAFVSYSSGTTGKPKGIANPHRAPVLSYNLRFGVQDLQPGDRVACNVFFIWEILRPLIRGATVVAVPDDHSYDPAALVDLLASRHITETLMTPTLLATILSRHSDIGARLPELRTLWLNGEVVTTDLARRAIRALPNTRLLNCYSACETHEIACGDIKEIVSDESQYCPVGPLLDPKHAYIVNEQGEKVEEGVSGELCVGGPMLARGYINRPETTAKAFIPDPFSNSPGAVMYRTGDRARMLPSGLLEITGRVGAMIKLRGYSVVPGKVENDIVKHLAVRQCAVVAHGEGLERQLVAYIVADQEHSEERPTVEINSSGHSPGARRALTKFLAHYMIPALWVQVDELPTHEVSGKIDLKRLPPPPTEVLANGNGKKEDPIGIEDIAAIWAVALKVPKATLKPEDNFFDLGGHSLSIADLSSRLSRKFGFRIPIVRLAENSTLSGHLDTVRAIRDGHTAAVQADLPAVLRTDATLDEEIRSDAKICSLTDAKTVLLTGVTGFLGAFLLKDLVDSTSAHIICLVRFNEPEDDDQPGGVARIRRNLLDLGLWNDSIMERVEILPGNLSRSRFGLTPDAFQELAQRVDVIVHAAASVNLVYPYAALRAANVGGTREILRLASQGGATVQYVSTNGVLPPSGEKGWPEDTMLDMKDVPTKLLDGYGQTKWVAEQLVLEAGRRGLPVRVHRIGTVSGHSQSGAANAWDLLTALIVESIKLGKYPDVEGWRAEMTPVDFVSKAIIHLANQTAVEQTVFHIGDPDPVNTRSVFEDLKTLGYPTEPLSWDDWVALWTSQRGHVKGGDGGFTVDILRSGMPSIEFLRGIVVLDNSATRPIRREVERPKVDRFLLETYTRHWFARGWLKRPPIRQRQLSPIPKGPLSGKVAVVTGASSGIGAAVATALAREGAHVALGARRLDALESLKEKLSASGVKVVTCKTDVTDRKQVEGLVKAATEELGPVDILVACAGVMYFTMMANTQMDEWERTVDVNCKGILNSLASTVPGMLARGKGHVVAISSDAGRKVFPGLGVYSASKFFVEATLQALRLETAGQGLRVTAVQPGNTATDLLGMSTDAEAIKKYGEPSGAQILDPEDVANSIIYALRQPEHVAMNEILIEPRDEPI
Kind of data set: glycine betaine reductase inhibition kinetics. The data set is classed as biochemical.

Data set [2] has as its target T1, ATRR (ATR1R2). As to the kind of experiment: carboxylic acid reductase steady-state kinetics. The data set is classed as biochemical. The settings on record: substrate inhibition.
Substrate in data set [3]: C[N+](C)(C)CC=O
As to the kind of experiment: purified protein. The settings on record: NADPH as co-substrate.

Substrate in data set [4]: CN(C)CC(=O)O
Kind of data set: purified protein. The settings on record: ATP and NADPH as co-substrates; fit with substrate inhibition.

Substrate in data set [5]: C[N+](C)(C)CC(=O)[O-]
Kind of data set: purified protein. The data set is classed as biochemical, Aspergillus nidulans. The settings on record: holo-enzyme; ATP and NADPH as co-substrates.

Substrate in data set [6]: C[N+](C)(C)CC(=O)[O-]
Kind of data set: carboxylic acid reductase steady-state kinetics, NADPH oxidation. The class given is biochemical, Aspergillus nidulans. The settings on record: ATP and NADPH as co-substrates; R2 inactivated.

Molecule `CN(C)C` [N(CH3)3H+Cl-] showed a Ki in data set [1] of 2600 ± 500 µM.
Turning to `CN(C)CC(=O)O` [N,N-Dimethylglycine], in data set [2], the Ki turned out to be 48000 ± 9000 µM.
`C[N+](C)(C)CCO` [Choline] returned a Ki in data set [1] of 270 ± 30 µM.

B1: ATRR (ATR1R2) (Aspergillus nidulans FGSC A4; Y812F) (protein)
chain: T1 sequence (A0A1U8QWA2 1-1270) with Y812F
On to B1, for which, in data set [3] (R1 inactivated), the Michaelis-Menten constant (Km) came out at 240 ± 30 µM and the kcat came out at 7.0 ± 0.2 s⁻¹.

B2: ATRR (ATR1R2) (Aspergillus nidulans FGSC A4) (protein)
chain: T1 sequence (A0A1U8QWA2 1-1270)
With B2, the Km was found to be 240 ± 30 µM in data set [3] (R2 site), 5800 ± 800 µM in data set [4] and 2100 ± 200 µM in data set [5]. In addition, the kcat in data set [3] (R2 site) came to 7.1 ± 0.3 s⁻¹; in data set [4], 0.023 ± 0.002 s⁻¹; in data set [5] it was 0.94 ± 0.03 s⁻¹.

B3: ATRR (ATR1R2) (Aspergillus nidulans FGSC A4; Y1178F) (protein)
chain: T1 sequence (A0A1U8QWA2 1-1270) with Y1178F
As to B3, in data set [3] (R2 inactivated), the Km worked out at 1500 ± 600 µM and the kcat came out at 0.30 ± 0.04 s⁻¹. Further, in data set [6], the Km turned out to be 2200 ± 200 µM and the catalytic constant (kcat) is 0.72 ± 0.02 s⁻¹.

B4: ATRR (ATR1R2) (Aspergillus nidulans FGSC A4; G1036A/Y1178F) (protein)
chain: T1 sequence (A0A1U8QWA2 1-1270) with G1036A, Y1178F
Regarding B4, in data set [3] (R2 inactivated), the Michaelis constant (Km) amounted to 2600 ± 500 µM and the turnover number (kcat) was 0.018 ± 0.001 s⁻¹. Besides, in data set [6], the Km worked out at 2200 ± 300 µM and the kcat worked out at 0.66 ± 0.02 s⁻¹.
